Results: patent US20150299259A1 (FORSCHUNGSZENTRUM JUELICH, published 2015)
Where no end group is shown, it is not given here. [ ]: non-standard residue; d: D form.

T1: PHF-6 (6-mer tau fragment 306VQIVYK311)
T1 construct: Used as fibrillary (aggregated) material; The mirror image selections used its synthetic D-enantiomer (D-PHF-6); also called L-PHF-6; aggregated tau partial peptide
T1 peptide: VQIVYK

B1: peptide having the sequence TTSLQMRLYYPP (peptide)
peptide: TTSLQMRLYYPP
modifications: not fully specified
notes: L-peptide selected by regular phage display against L-PHF-6; also called TL28

Columns and labels:
[1] = target: T1, PHF-6 (6-mer tau fragment 306VQIVYK311); experiment: regular phage display and single-phage ELISA on L-PHF-6 fibrils
Method: A phage display kit made by Biolabs was used for the following selections. At the same time, a regular phage display was carried out for the selection of L-peptides. In this regard, obtaining binding motifs after database searches allows conclusions to be drawn concerning previously unknown binding partners in vivo. Moreover, binding partners can later be tested as D-peptides or retro-inverso peptides. After selection, enriched phages were isolated and single-phage ELISA assays were carried out. […] The D-peptides Apt and Knt stem from selections against […]. Against L-PHF-6, a peptide having the sequence […] was selected, which we also analyzed in D-enantiomeric form (TD28) and as a retro-inverso peptide (TD28ri).

[2] = target: full-length tau protein (441 amino acids) (UniProt P10636-8 1-441, limits assumed); experiment: cell-based or functional assay
full-length tau protein (441 amino acids), sequence (P10636 other isoform, or with tags, fused parts or gaps limits assumed): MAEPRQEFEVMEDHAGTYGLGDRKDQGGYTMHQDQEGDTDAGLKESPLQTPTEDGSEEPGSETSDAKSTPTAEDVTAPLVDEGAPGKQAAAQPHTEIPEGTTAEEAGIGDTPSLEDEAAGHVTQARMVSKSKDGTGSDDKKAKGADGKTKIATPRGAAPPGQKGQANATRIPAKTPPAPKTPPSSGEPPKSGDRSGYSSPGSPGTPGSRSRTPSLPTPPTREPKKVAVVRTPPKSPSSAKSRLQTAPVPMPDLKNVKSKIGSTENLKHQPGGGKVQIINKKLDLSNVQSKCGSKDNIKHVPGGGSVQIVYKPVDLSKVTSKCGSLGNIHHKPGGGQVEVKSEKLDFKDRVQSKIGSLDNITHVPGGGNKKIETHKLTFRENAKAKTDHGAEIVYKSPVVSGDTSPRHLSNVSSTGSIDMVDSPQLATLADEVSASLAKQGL

Binder | binding result [1] | DLS particle size Day 1 (Tau + AA + peptide, 1:10) [2] [fold] | DLS particle size Day 8 (Tau + AA + peptide, 1:10) [2] [fold]
B1 | binds | 5 | 4
[dT][dL][dK][dI][dV][dW] [D-enantiomeric peptide tlkivw described by Sievers et al.] | – | 6 | 6
